Data on 18 sequences can be found in the DeepSol protein solubility set.

This data set in a line: soluble on expression in E. coli; label from the status in PepcDB or PDB records.
As to “GSVDIEVQDLEEFALRPAPQGITIKCRITRDKKGMDRGMFPTYFLHLDREDGKKVFLLAGRKRKKSKTSNYLISVDPTDLSRGGDSYIGKLRSNLMGTKFTVYDNGVNPQKASSSTLESGTLRQELAAVCYETNVLGFKGPRKMSVIVPGMNMVHERVCIRPRNEHETLLARWQNKNTESIIELQNKTPVWNDDTQSYVLNFHGRVTQASVKNFQIIHGNDPDYIVMQFGRVAEDVFTMDYNYPLCALQAFAIALSSFDSKLACE”, the “soluble on expression in E. coli” value is “soluble”.

Take “PWLENVQVQLSDLFSELKYNSVSGSGKIGIMASGVSALYVKEAVKGFEELFTLFRVGTVYPFPEKAALSFLKGIEKLIVVEELDPYLEEQALQLIGRAHLPADVYGKKNGFFPVSGEYNVDIIIDCINKVLAELGETSRLSHSAPAIPRSGLPPLPVRAPTLCAGCMHRTVFYAFKQASKQLKKDFQVETIFSGDIGCYTLGNAHPLNMVDTCLCMGAGMSIAGGLSRANPGVKQVAFIGDSTFFHSGIPAVINAVYNGSDVTLAVLDNRTTAMTGHQTHPGIGVTVLGSPSKAVDISDVIRSCGVELVRSVDIDSLENSLEGCIEAAKEAVEFKGPSAVVFKGKCVGITKPVIRFEIDTESCTGCGLCVKQLGCPALFLPAGEEKPVIQDSCSGCGLCAQVCPSGAIIETGVK”: the “soluble on expression in E. coli” value is given as “not soluble”.

Consider “MRSVRRREALREWIMAKLYFNYSTMNAGKSTMLLQASYNYQERGMRTLIFTAAFDDRAGVGRVASRIGLSSEARTFDENTDLFAEVAALHAQAPVACVFVDEANFLSEHHVWQLANIADRLNIPVMTYGLRTDFQGKLFPASKELLAIADELREIRTICHCGRKATMVARFDSEGKVVTEGAQIEVGGNGKYVSFCRRHWVETFNCSLEHHHHHH”, for which the “soluble on expression in E. coli” value is “not soluble”.

Take “MAHHHHHHMREKTTSAATPMRCRKELAATLTRTRNSPRTPVTFELATERGLHNFSRRGPRVRAKSSIAVHAATASPLSLLEQTLWTEIEQLNAATNRLRERILEVKREFSADAIAAVTGGEPLPVEARTGGLFRNPPKQRGQNSKDEPPYAVTFTPSHSQKKAANVRLQFTSPRKTPMKENDSSVLTSLAMFEYTPQNDDHREGARPTENRNVLQELKRDETFETGTPVHLSEAATMGGPFVVDLQKSDHGAANNTAEKPTELSTSVDSARESAKHLLLQANMMGVEQDLNHYMSDLLAIQRDTLDAQKRGLIDPNDSSVRELRLGIRDELNACRARILTLESLQTSLSAGVATKKTIS”: the “soluble on expression in E. coli” value is “not soluble”.

For “MTGERIEKVKINDEFAKSHFLTTQWRETKRQRHYKMPVTEQGLRERIESAIPQVYHIIVTDLSYGCGQSFDIVVVSDFFQGKSKLMRSRAVNKAVKEELQEIHAFSCKCYTEEEWSKIVV”, the “soluble on expression in E. coli” value is “soluble”.

Turning to “MAHHHHHHMYKLVLIRHGESTWNKENRFTGWVDVDLTEQGNREARQAGQLLKEAGYTFDIAYTSVLKRAIRTLWHVQDQMDLMYVPVVHSWRLNERHYGALSGLNKAETAAKYGDEQVLVWRRSYDTPPPALEPGDERAPYADPRYAKVPREQLPLTECLKDTVARVLPLWNESIAPAVKAGKQVLIAAHGNSLRALIKYLDGISDADIVGLNIPNGVPLVYELDESLTPIRHYYLGDQEAIAKAQAAVAQQGKSAA”, the “soluble on expression in E. coli” value was “soluble”.

On to “MGSSHHHHHHSSGLVPRGSHASMAAEMDWDKTVGAAEDVRRIFEHIPAILVGLEGPDHRFVAVNAAYRGFSPLLDTVGQPAREVYPELEGQQIYEMLDRVYQTGEPQSGSEWRLQTDYDGSGVEERYFDFVVTPRRRADGSIEGVQLIVDDVTSRVRARQAAEARVEELSERYRNVRDSATVMQQ”, for which the “soluble on expression in E. coli” value was “soluble”.

With “MSLTLRQAIDLAAALLAEAGVDSARCDAEQLAAHLAGTDRGRLPLFEPPGDEFFGRYRDIVTARARRVPLQHLIGTVSFGPVVLHVGPGVFVPRPETEAILAWATAQSLPARPLIVDACTGSGALAVALAQHRANLGLKARIIGIDDSDCALDYARRNAAGTPVELVRADVTTPRLLPELDGQVDLMVSNPPYIPDAAVLEPEVAQHDPHHALFGGPDGMTVISAVVGLAGRWLRPGGLFAVEHDDTTSSSTVDLVSSTKLFVDVQARKDLAGRPRFVTAMRWGHLPLAGENGAIDPRQRRCRAKREGHHHHHH”, the “soluble on expression in E. coli” value is reported as “soluble”.

Turning to “NKDFQWDFSLNWSKSVKKLTEIYGGQKKFGDLKVGDRADAFYGSQWQKSADGELILDENGMPTKDAYKQYLGHLDPNFRMGMQNTFRYKDFTLSVDLDGAYKGVIYSVLSEKLWWGGKHPESVEYRDAQYAVGHPIYVPNGVVVTGGELKRDIDGNVISDTRTYKRNTTAVDWQQWCQNYPYQAYVSSKENAKFANVFDRSYIKLRRVALTYNFTKLLSKQSPVKGLTATVFGNNLAVWKKVPFVDPDYTGDSNDGGANDPTARYIGMGVNIKF”, the “soluble on expression in E. coli” value is on record as “not soluble”.

Regarding “MSLAKLRPTKTFKPKPPAGLPDRETLLAFLRDAGETGKADIARHFGLKGADRRALREMIRELEAQGALAKRGRKGFAEAGSLPPVGVADVVERDGDGELYVKLTKSDDDVPNVRLAPGKGEAAAGAPGLGDRLLVRFERLETGEFEAKLIKKLGQSAHKILGVIRKHRREVRVEPVDRKSKESLVLDPSVAHDFKEGDLVLAQVGTHGGRYGPKPGKVLEVVGTENDPRAASLIAIHSHGIPTGFSEAAEAEAKTAVEPTLAGREDLRDLPFVTIDPVDARDHDDAVYAHPDEDETNKGGFVVWVAIADVAAYVRPGSALDRDAREKGNSVYFPDRVEPMLPETLSNGLCSLRESENRATLAVRMVFDKSGRKKGHRFVRGLMRSAAKLSYEQAQAAIDGQPDDKAGPLLDPILKPLWDAYRTMKIGRDARSPLAIESDERRIIIKGGEITSITKRASLEAHKLIEEMMVQANVCAAESLEAKRSPLIYRVHDTPSLEKVQNLADFLQTLEIRWSKGEAPQTARFNKLLEETRESPNAAIINEVVLRTQMQAHYSADNIGHFGLNLAKYAHFTSPIRRYADLIVHRGLIRALGLGTDGLTDQDIAQIKDTAEVITHAERRAMAAERDATDRYIAAFLADRVGATFEGRITGVTRFGLFIKLADTGADGLVPVSSLGQEFFVHDDKMHALVGERTGKRWPLGLSVEVKLVEATPVTGGLLFEMLSEPLPPDPKMPRPRLGARRQAAVKPRGGLPKGVRRGKRREGHHHHHH”, the “soluble on expression in E. coli” value is listed as “soluble”.

“DAVELFKKANAMLDEDEDERVDEAALRQLTEMGFPENRATKALQLNHMSVPQAMEWLIEHAEDPTIDTPL”: the “soluble on expression in E. coli” value is “soluble”.

With “MRNICFVACMLFCLTSAVGKTPGNTRYLSIADSILSNVLNLYQTNDGLLTETYPVNPDQKITYLAGGTQQNGTLKASFLWPYSGMMSGCVALYKATGNKKYKKILEKRILPGMEQYWDNSRLPACYQSYPTKYGQHGRYYDDNIWIALDYCDYYQLTHKPASLEKAVALYQYIYSGWSDEIGGGIFWCEQQKEAKHTCSNAPSTVLGVKLYRLTKDAKYLEKAKETYAWTKKHLCDPTDHLYWDNINLKGKVSKEKYAYNSGQMIQAGVLLYEETGDEQYLRDAQQTAAGTDAFFRTKADKKDPTVKVHKDMAWFNVILFRGLKALYKIDKNPAYVNAMVENALHAWENYRDENGLLGRDWSGHNKEQYKWLLDNACLIEFFAEIAAALEHHHHHH”, the “soluble on expression in E. coli” value was “not soluble”.

Consider “MTDTAENQTQNNWQAGHPRSIRSFVLRQSHMTAAQQRAIDTLWDSFGIDYQATPADLDARFGSSRPKILEIGFGMGTATAEIARRLPETDFLAIDVHGPGVGNLLKLIDENHLENIRVMRHDAVEVVENMLQDGSLDGIHIFFPDPWHKKRHHKRRLIQAPFIAKLLPKLKTGGYIHLATDWEEYAQQMLEVLSSFDSLQNTAADYAPTPDYRPETKFEARGKRLGHGVWDLVFKRIG”, for which the “soluble on expression in E. coli” value is “not soluble”.

Turning to “MSLDFRDYMVKQVAARSGYQLQLDGPLRWHVWPQLSILSGRMSLTAQGASQPLVRADNMRLDVALLPLLSHQLSVKQVMLKGAVIQLTPQTEAVRSEDAPVAPRDNTLPDLSDDRGWSFDISSLKVADSVLVFQHEDDEQVTIRNIRLQMEQDPQHRGSFEFSGRVNRDQRDLTISLNGTVDASDYPHDLTAAIEQINWQLQGADLPKQGIQGQGSFQAQWQESHKRLSFNQISLTANDSTLSGQAQVTLTEKPEWQLRLQFPQLNLDNLIPLNETANGENGAAQQGQSQSTLPRPVISSRIDEPAYQGLQGFTADILLQASNVRWRGMNFTDVATQMTNKSGLLEITQLQGKLNGGQVSLPGTLDATSINPRINFQPRLENVEIGTILKAFNYPISLTGKMSLAGDFSGADIDADAFRHNWQGQAHVEMTDTRMEGMNFQQMIQQAVERNGGDVKAAENFDNVTRLDRFTTDLTLKDGVVTLNDMQGQSPVLALTGEGMLNLADQTCDTQFDIRVVGGWNGESKLIDFLKETPVPLRVYGNWQQLNYSLQVDQLLRKHLQDEAKRRLNDWAERNKDSRNGKDVKKLLEKMEGHHHHHH”, the “soluble on expression in E. coli” value is recorded as “soluble”.

“MGSDKIHHHHHHCSEKTTTEIPETELKNISCSTQLVTHSSAQTRGAAPTTLNENDFVLYAFKKNGEGNFSYEEAKHETSVIDGGVWKYNAAFPVGTYKFIAFYNLDEKNQAALNTTITGISNQTWENILKSIVITHFPSATGQYHEDMNEIFCGKTTDEIDISSGIGGDDNEIKIKLTLERIVSRIDIKFIKVASDDDHIEVPYATGNIFGGTGTTSLTSLIFTSSNVPLKYNLNGENPDYVTGVQCQVTYAAPSFQYGEANADAVKALDYQPFPQNADAINNNMETNIKKGIAKGGAYFMGSYLLPFPSSSQTLNANIQLNKANQERTIKVPGFAVTSNYVSIITVRLKSSTDAGDNNNGNDDEHLFNPKSTFIVEIEKTYVGIHNTNVDVE”: the “soluble on expression in E. coli” value is “not soluble”.

“MGSDKIHHHHHHMAVSLWQQCIGRLQDELSAQQFSMWIRPLQAEMEGDTLVLYAPNRFVLDWVRDKYINSINQFFTEQLGDNAPKLRFDIGSRPSAKPQAPAPAAVKAAAPQPKPGNSFVSQPEPAVSNHRSNINPTYQFDNFVEGKSNQLGKAAALQVAENPGGAYNPLFLYGGTGLGKTHLLHAVGNGIIKNNPNAKVVYMHSERFVQDMVKALQNNAIEEFKRYYRSVDALFIDDIQFFANKDRSQEEFFHTFNALLEGNHQIILTSDRYPKEIDGVEDRLKSRFGWGLTVAIEPPELETRVAILMRKAQESGINLPDEVAFFIAKRLRSNVRELEGALNRVIANANFTGRPITIDFVREALRDLLALQEKLVTIDNIQKTVAEYYKIKMADMLSKRRSRSVARPRQMAMALSKELTNQSLPEIGDAFGGRDHTTVLHACRKIAQLREESHDIKEDYANLIRTLSS”: the “soluble on expression in E. coli” value is given as “not soluble”.

On to “MGSDKIHHHHHHMPPAIAPRFIYCRVCDACGFAARRSRFSGHAASGHRAAASAFLRPRMNVTTSDDCIGVLPDHPWAKHFIVLGYRDGAFSTIPNNFFRNWLDEEAQVGTFHIGRCSGLGVGSIAKYDQGLQKLVIGKNVAGGMRLRFLLNGQHEMRTISTSLFSIYGNGLENAPMPQYPDTVIHNDVWIGDEALFLGGSQIESGCVIGARAVIPPNFRTEAYGIYAGSPARLVRFRFTEKVREKLLQLAWWDMPLDWIKRNNHAFLVDLTANEGRALDTLAALQESKDNATGEAGRQTAAATPV”, for which the “soluble on expression in E. coli” value is reported as “not soluble”.

“MAHHHHHHMKTDDHLSQIHRMCRALGIRPGAPAPLIQPALTLQCPRLHTPMVVHEKPAAKIALPMLLSDSSGDVSYLAGQDSVGTLRMTPPGSPRTPALTSVSNMRHHAHLATSELPVSVLVASALSFVAAWRTEDSACTAQKDLIHCCLKARCDLELEEAGGRHRLNQLLLTVSEQMHRFVVMGEYSKFVVFCVDQEPVWRQAARQLQKENEARLHTTENIYSRFLMEEIAVSDKMRMFQEASDFVVSQGHAAREQRRRAQILAARRRCDRQSAPQETPMPFAPQSHLHPHQHKNESNAAALAGGWTPPQRQRPRDDSTDRRSGSSKERSSKNAKSHSTTEVDRYRQRWRKIIWFLSNGERGKPAPH”: the “soluble on expression in E. coli” value was “not soluble”.
